Values joined by “and” are separate entries in the source; they are usually repeats but may differ in a detail not shown here. Equal values may be shown once.
Biological target: S318-510 fragment (amino acids 318-510 of the S protein of SARS-CoV strain Frankfurt 1) (SARS-CoV strain Frankfurt 1, UniProt P59594 318-510)

B1: CR03-014 (antibody, V domains shown)
VH: EVQLVESGGGLVQPGGSLRLSCAASGFTFSDHYMDWVRQAPGKGLEWVGRTRNKANSYTTEYAASVKGRFTISRDDSKNSLYLQMNSLKTEDTAVYYCARGISPFYFDYWGQGTLVTVSS
VL: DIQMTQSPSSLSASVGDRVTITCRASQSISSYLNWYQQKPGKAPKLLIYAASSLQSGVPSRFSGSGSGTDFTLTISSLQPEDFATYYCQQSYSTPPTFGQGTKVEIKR
B1 was tested, and the Kd was 16.3 nM and 14.8 nM.
